Drawing on publication PMC3378324, this text covers Kd for two substances.

Assay [1] has as its target Fyn(WT)-SH3, 6xHis C-terminal fusion (human) (UniProt P06241). The assay can be described thus: ITC.
The target of assay [2] is Fyn(R96I)-SH3, 6xHis C-terminal fusion (human) (UniProt P06241). As to the kind of experiment: ITC. On the technique in general: Isothermal titration calorimetry measures the heat released or taken up as one component is titrated into another.
For assay [3], the target named is Nef (Human immunodeficiency virus 1) (UniProt P04324). The following applies: cited from earlier work.

Sequence of Fyn(WT)-SH3, 6xHis C-terminal fusion (human) (P06241 85-141): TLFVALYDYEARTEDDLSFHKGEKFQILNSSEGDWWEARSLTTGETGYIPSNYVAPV
Sequence of Fyn(R96I)-SH3, 6xHis C-terminal fusion (human) (P06241 86-143 R96I): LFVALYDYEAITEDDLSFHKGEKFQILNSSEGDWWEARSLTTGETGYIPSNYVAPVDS
Sequence of Fyn SH3 SH3 (P06241 79-146): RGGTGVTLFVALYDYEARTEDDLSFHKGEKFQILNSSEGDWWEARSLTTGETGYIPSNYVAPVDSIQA

For the substance “ALIXPI peptide (Alix residues 737 to 760) (from UniProt Q8WUM4 737-760)”, the values for the Kd in assay [1] and in assay [2] were 160 µM and 54 µM, respectively.
Take Fyn SH3 SH3 (from UniProt P06241): the dissociation constant Kd in assay [3] was more than 20 µM.

The Kd is the equilibrium constant for the complex coming apart.
